Results from publication PMC4517315, “Functional properties and structural characterization of rice δ^1-pyrroline-5-carboxylate reductase” (Frontiers in Plant Science, 2015).
Values belong to the molecule of their own block, whether it stands above or below them.

How the values were obtained:
[1] = molecular target: Oryza sativa P5C reductase, from pMCSG68, for crystallization (Oryza sativa (japonica rice)); assay: crystal structure; 3.40 Å, space group P2(1), two decamers in the asymmetric unit; crystals from 100 mM Tris-HCl pH 8.5, 200 mM MgCl2, 18% PEG 8000, 19°C; molecular replacement with a homology model based on PDB 2izz
[2] = molecular target: T1, rice δ^1-pyrroline-5-carboxylate reductase (Oryza sativa, UniProt Q8GT01); assay: product inhibition of purified recombinant enzyme, NADH-dependent P5C reduction at […] nm; Lineweaver-Burk/non-linear regression; format: biochemical
T1 construct: gene Os01g0948400

[3] = molecular target: rice (Oryza sativa L.) δ1-pyrroline-5-carboxylate (P5C) reductase, from pET151-OsP5CR, TEV-cleaved (Oryza sativa (japonica rice)); assay: SEC; gel permeation on Superose 12 HR 10/30, 50 mM Tris-HCl pH 7.75, 250 mM NaCl, 100 uL of protein at 10 mg/mL, calibrated with molecular weight markers; identical elution patterns up to 1 M NaCl (data not shown); size of the oligomer from the apparent mass
[4] = substrate: NC(=O)C1=CN([C@@H]2O[C@H](COP(=O)(O)OP(=O)(O)OC[C@H]3O[C@@H](n4cnc5c(N)ncnc54)[C@H](O)[C@@H]3O)[C@@H](O)[C@H]2O)C=CC1; assay: purified protein; conditions: P5C binding is required to allow NADH to enter the active site; varied: cofactor
[5] = substrate: NC(=O)C1=CN([C@@H]2O[C@H](COP(=O)(O)OP(=O)(O)OC[C@H]3O[C@@H](n4cnc5c(N)ncnc54)[C@H](OP(=O)(O)O)[C@@H]3O)[C@@H](O)[C@H]2O)C=CC1; assay: purified protein; conditions: varied: cofactor
[6] = substrate: O=C(O)C1CCC=N1; assay: purified protein; format: biochemical, Oryza sativa; conditions: NADPH P5C binds before NADPH (ordered substrate binding)

Molecule: NC(=O)c1ccc[n+]([C@@H]2O[C@H](COP(=O)([O-])OP(=O)(O)OC[C@H]3O[C@@H](n4cnc5c(N)ncnc54)[C@H](OP(=O)(O)O)[C@@H]3O)[C@@H](O)[C@H]2O)c1 [NADP^+]
Ki [2]: 0.00773 ± 0.00069 mM

Molecule: O=C(O)[C@@H]1CCCN1 [L-proline]
Ki [2]: 20.2 ± 1 mM

B1: rice δ^1-pyrroline-5-carboxylate reductase (Oryza sativa Japonica Group) (protein)
chain: MAAPPQPVPAPAAASPEVFRLGFIGPGNLAESIARGVAASGVLPATAIRTAPHRRPERAEAFSSIGAHILETNAQVVDDSDVIVISVKPQIVRQVLVELKPLLSEEKLLVSIAAGIKMEDLQGWSGHRRFIRVMPNTPSAVGQAASVMCLGEMATENDENRVRSLFSAIGKVWTAEEKYFDAVTGLSGSGPAYIFLAIEAMADGGVAAGLPRDLALGLASQTVLGAATMVNKTGKHPGQLKDMVTSPAGTTITGIQELEKGAFRGTLINAVVAATKRCRELSQS
Km [4]: 806 ± 89 µM | Vmax [4]: 158.3 ± 13.2 μkat (mg protein)^-1 | Km [5]: 49.4 ± 1.8 µM | Vmax [5]: 11.68 ± 0.16 μkat (mg protein)^-1 | Km [6]: 28.8 ± 1.7 µM

Now from value to molecule:

stoichiometry N [1]: 10 subunits
Molecule: Oryza sativa P5C reductase, from pMCSG68, for crystallization (enzyme)

stoichiometry N [3]: 14 subunits
Molecule: rice (Oryza sativa L.) δ1-pyrroline-5-carboxylate (P5C) reductase, from pET151-OsP5CR, TEV-cleaved (enzyme)
